Measurements taken from paper PMC3597819 (The Journal of Biological Chemistry, 2013).

Biological target: the molecule itself
Experiment: crystal structure

B1: KLHL11 BTB-BACK domains (residues 67-340) (domain or fragment, human, UniProt Q9NVR0 67-340, looked up)
chain: EAEDFECSSHCSELSWRQNEQRRQGLFCDITLCFGGAGGREFRAHRSVLAAATEYFTPLLSGQFSESRSGRVEMRKWSSEPGPEPDTVEAVIEYMYTGRIRVSTGSVHEVLELADRFLLIRLKEFCGEFLKKKLHLSNCVAIHSLAHMYTLSQLALKAADMIRRNFHKVIQDEEFYTLPFHLIRDWLSDLEITVDSEEVLFETVLKWVQRNAEERERYFEELFKLLRLSQMKPTYLTRHVKPERLVANNEVCVKLVADAVERHALRAENIQSGT
In the case of B1, the “stoichiometry N” value is reported as 2.
